FireProtDB (doi:10.1038/s41598-020-57873-3)

B1: N377P, Q8GB52 (parent)
chain: MLKKVLSCCIAATFGIYSASSLAQSSVINSTENSQQPIAPLVLASSDDAITDRYIVVLKQPQMLMNDAAGLQQFTQQTVGLMANSFSIKTDDVFDSSIIGFVANLDALQLKQLRRDSRVEYIEQDQILSIDPVVSNEAVQSNAIWGLDRIDQRNLPLDRNYNANFDGFGVTAYVIDTGVNNNHEEFGGRSVSGYDFVDNDADSSDCNGHGTHVAGTIGGSQYGVAKNVNIVGVRVLSCSGSGTTSGVISGVDWVAQNASGPSVANMSLGGGQSTALDSAVQGAIQSGVSFMLAAGNSNADACNTSPARVPSGVTVGSTTSSDSRSSFSNWGSCVDLFAPGSQIKSAWYDGGYKTISGTSMATPHVAGVAALYLQENNGLTPLQLTGLLNSRASENKVSDTRGTTNKLLYSLADSGCEPDCGGPTPGPDPDGKLVSGVPVNGLSGSRGQKDYFYMDLQQGQQLTVVTIGGTGDADLYLRFGDKPTLNTWDCRPYRSGNSETCTVNVTQSGRYHVMLNAYSAYSGLTLQANF

Variants of: B1
Conditions: Vibrio sp. PA-44, pH 8.6, Thermal, structure 1SH7, whole UniProt chain shown
[1] = CD, glycine, Nacl / Cacl2 100000 / 15000, transition: 2, reversible: no
[2] = DSC, Glycine 25 mM, NaCl and CaCl2 100 mM and 15 mM
[3] = DSC, glycine, Nacl / Cacl2 100000 / 15000, transition: 2, reversible: no
[4] = CD, Glycine 25 mM, NaCl and CaCl2 100 mM and 15 mM

| Variant | Tm [1] [°C] | change of melting temperature, mutant - wild type (higher = more stable) [1] [°C] | Tm [2] [°C] | change of melting temperature, mutant - wild type (higher = more stable) [2] [°C] | unfolding enthalpy (calorimetric) [2] [kcal/mol] | Tm [3] [°C] | change of melting temperature, mutant - wild type (higher = more stable) [3] [°C] | unfolding enthalpy (calorimetric) [3] [kcal/mol] | Tm [4] [°C] | change of melting temperature, mutant - wild type (higher = more stable) [4] [°C] |
| --- | --- | --- | --- | --- | --- | --- | --- | --- | --- | --- |
| MLKKVLSCCIAATFGIYSASSLAQSSVINSTENSQQPIAPLVLASSDDAITDRYIVVLKQPQMLMNDAAGLQQFTQQTVGLMANSFSIKTDDVFDSSIIGFVANLDALQLKQLRRDSRVEYIEQDQILSIDPVVSNEAVQSNAIWGLDRIDQRNLPLDRNYNANFDGFGVTAYVIDTGVNNNHEEFGGRSVSGYDFVDNDADSSDCNGHGTHVAGTIGGSQYGVAKNVNIVGVRVLSCSGSGTTSGVISGVDWVAQNASGPSVANMSLGGGQSTALDSAVQGAIQSGVSFMLAAGNSNADACNTSPARVPSGVTVGSTTSSDSRSSFSNWGSCVDLFAPGSQIKSAWYDGGYKTISGTSMATPHVAGVAALYLQENPGLTPLQLTGLLNSRASENKVSDTRGTTNKLLYSLADSGCEPDCGGPTPGPDPDGKLVSGVPVNGLSGSRGQKDYFYMDLQQGQQLTVVTIGGTGDADLYLRFGDKPTLNTWDCRPYRSGNSETCTVNVTQSGRYHVMLNAYSAYSGLTLQANF [N377P] | 60.7 | -1.2 | 63.6 | -0.3 | 133 | 63.6 | -0.3 | 133 |  |  |
| MLKKVLSCCIAATFGIYSASSLAQSSVINSTENSQQPIAPLVLASSDDAITDRYIVVLKQPQMLMNDAAGLQQFTQQTVGLMANSFSIKTDDVFDSSIIGFVANLDALQLKQLRRDSRVEYIEQDQILSIDPVVSNEAVQSPAPWGLDRIDQRNLPLDRNYNANFDGFGVTAYVIDTGVNNNHEEFGGRSVSGYDFVDNDADSSDCNGHGTHVAGTIGGSQYGVAKNVNIVGVRVLSCSGSGTTSGVISGVDWVAQNASGPSVANMSLGGGQSTALDSAVQGAIQSGVSFMLAAGNSNADACNTSPARVPSGVTVGSTTSSDSRSSFSNWGSCVDLFAPGSQIKSAWYDGGYKTISGTSMATPHVAGVAALYLQENPGLTPLQLTGLLNSRASENKVSDTRGTTNKLLYSLADSGCEPDCGGPTPGPDPDGKLVSGVPVNGLSGSRGQKDYFYMDLQQGQQLTVVTIGGTGDADLYLRFGDKPTLNTWDCRPYRSGNSETCTVNVTQSGRYHVMLNAYSAYSGLTLQANF [N142P I144P N377P] | 68.8 | 6.9 | 72 | 8.1 | 163 | 72 | 8.1 | 162 | 68.8 | 6.9 |
| MLKKVLSCCIAATFGIYSASSLAQSSVINSTENSQQPIAPLVLASSDDAITDRYIVVLKQPQMLMNDAAGLQQFTQQTVGLMANSFSIKTDDVFDSSIIGFVANLDALQLKQLRRDSRVEYIEQDQILSIDPVVSNEAVQSNAIWGLDRIDQRNLPLDRNYNANFDGFGVTAYVIDTGVNNNHEEFGGRSVSGYDFVDNDADSSDCNGHGTHVAGTIGGSQYGVAKNVNIVGVRVLSCSGSGTTSGVISGVDWVAQNASGPSVANMSLGGGQSTALDSAVQGAIQSGVSFMLAAGNSNADACNTSPARVPSGVTVGSTTSSDSRSSFSNWGSCVDLFAPGSQIKSAWYDGGYKTISGTSMATPHVAGVAALYLQENNGLTPLQLTGLLNSRASENKVSDTRGTPNKLLYSLADSGCEPDCGGPTPGPDPDGKLVSGVPVNGLSGSRGQKDYFYMDLQQGQQLTVVTIGGTGDADLYLRFGDKPTLNTWDCRPYRSGNSETCTVNVTQSGRYHVMLNAYSAYSGLTLQANF [T404P] |  |  | 64.5 | 0.6 | 108 | 64.5 | 0.6 | 108 | 61.6 | -0.3 |
